Laboratory results reported in doi:10.1101/2025.06.20.660705.

Biological target: RNF13 DN-HA (dominant-negative RNF13, HA-tagged) (human) (UniProt O43567)
Assay: co-IP

UniProt O43567, sequence (O43567 35-381): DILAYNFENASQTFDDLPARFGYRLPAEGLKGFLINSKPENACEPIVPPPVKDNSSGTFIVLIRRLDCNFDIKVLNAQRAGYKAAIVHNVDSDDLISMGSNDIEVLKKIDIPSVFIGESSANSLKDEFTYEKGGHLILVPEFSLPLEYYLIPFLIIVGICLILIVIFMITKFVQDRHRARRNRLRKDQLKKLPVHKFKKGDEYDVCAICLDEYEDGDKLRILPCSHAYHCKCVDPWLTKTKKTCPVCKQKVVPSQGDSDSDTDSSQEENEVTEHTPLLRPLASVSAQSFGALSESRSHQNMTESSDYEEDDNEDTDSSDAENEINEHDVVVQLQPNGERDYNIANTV

B1: IDS-V5 (wild-type, full-length human iduronate 2-sulfatase, C-terminal V5 tag) (enzyme)
chain: SETQANSTTDALNVLLIIVDDLRPSLGCYGDKLVRSPNIDQLASHSLLFQNAFAQQAVCAPSRVSFLTGRRPDTTRLYDFNSYWRVHAGNFSTIPQYFKENGYVTMSVGKVFHPGISSNHTDDSPYSWSFPPYHPSSEKYENTKTCRGPDGELHANLLCPVDVLDVPEGTLPDKQSTEQAIQLLEKMKTSASPFFLAVGYHKPHIPFRYPKEFQKLYPLENITLAPDPEVPDGLPPVAYNPWMDIRQREDVQALNISVPYGPIPVDFQRKIRQSYFASVSYLDTQVGRLLSALDDLQLANSTIIAFTSDHGWALGEHGEWAKYSNFDVATHVPLIFYVPGRTASLPEAGEKLFPYLDPFDSASQLMEPGRQSMDLVELVSLFPTLAGLAGLQVPPRCPVPSFHVELCREGKNLLKHFRFRDLEEDPYLPGNPRELIAYSQYPRPSDIPQWNSDKPSLKDIKIMGYSIRTIDYRYTVWVGFNPDEFLANFSDIHAGELYFVDSDPLQDHNMYNDSQGGDLFQLLMP
  amount of IDS co-immunoprecipitated relative to RNF13 WT: 50%
